± gives the uncertainty stated by the source.
Assay: amyloid nucleation score (Sup35N fusion, yeast selection) (log enrichment); library NNK3; higher = more nucleation; inactive = no reads after selection
Method in brief: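 Nucleation score is defined as the DiMSum log enrichment of output over input reads, with centring on the mode score of non-aggregating sequences. A minimum of 100 input reads was required for each sequence. Reads came from Illumina sequencing of plasmid inserts from psi-negative yeast expressing Sup35N fused to peptides of 20 random codons, induced with 100 μM copper sulfate for 24 hours and grown 7 days at 30°C on medium lacking adenine and uracil.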

Substance | amyloid nucleation score
KLLFLSYTYWWKSHFWRFRT | inactive
KLLSSGFMMFWASYQTGYWR | inactive
KLPGLFQLCDMCVIGLKNAY | 0.513 ± 0.17
KLPMRVGLM | inactive
KLPVKGRMPVVF | inactive
KLVCRIIDAKAH | inactive
KLVVNSKPYMNYVSVDEIIM | inactive
KMHWNAGDQLYVRSPTHSLR | inactive
KMKSAIIPVECGSR | inactive
KMLQLVVGIRILVNRMSWSR | inactive
KMTLYIFCLAFMLWESNQII | inactive
KMWCNGMAISLHVRRLCQV | inactive
KNCIGRFW | inactive
KNIKTSIIYSYYALIIR | 2.47 ± 0.074
KNKYQLN | inactive
KPNLRFLS | inactive
KPWGPGIIGSGSRIMTDVVE | inactive
KRDWHLVTMG | -0.134 ± 0.32
KREAFNQALADNHQLQMLYE | 0.615 ± 0.12
KRECYMIIHI | inactive
KRISDRIFCFCLKHGVGLFG | inactive
KRLFVTFFLSSLRGNILMWG | inactive
KRLHTS | inactive

Substance | amyloid nucleation score
KRMLCWFINKVIYLRYLWQV | inactive
KSERLNLVGILVSLVRPVCL | inactive
KSGICGCVGHLVHKPMQLRV | inactive
KSGIV | 0.633 ± 0.19
KSQLFLMWSSSKLLTYTVQA | inactive
KSREWLLSYFCYGW | inactive
KSVNLHA | inactive
KTDTCRNIL | inactive
KTFMSCFGMGKEEGLSHFPR | inactive
KTHCCC | inactive
KTSAVRLATNIVLTFHSILY | inactive
KTSIRRCLSIRC | inactive
KVCFCSLL | 2.94 ± 0.075
KVICVLFKIMKLF | 0.442 ± 0.18
KVIKDNLEVCFLKSMWC | inactive
KVLQPANVLRLTGFVSVRGV | inactive
KVRSARVRMHHNRYDKEMSG | inactive
KVTMPLQSYTLYSMYICLLS | inactive
KWLVPTQG | inactive
KWNCHLVLPLWIPGLVMMGR | inactive
KWNHYWDIVFCTSYFNSTFM | 2.29 ± 0.066
KYGWVLFYGCYYCGHGWTNL | inactive
KYLWDLATHNIFAGSKMMDN | inactive

Substance | amyloid nucleation score
KYNANYQSSYNIVRLYRVFW | inactive
KYPNRKLF | inactive
KYPSYLNLSCVAVKYVWCSE | 1.94 ± 0.071
KYQLHYLDVFFYDVV | inactive
KYWSLGNGCTTKRWSGGFVS | inactive
KYYFRGWKTEPVTWFGCQAM | 0.488 ± 0.2
KYYTSRNRWRYMV | -0.291 ± 0.68
LAGCNPLASARFVWVI | inactive
LAINIFWLEDRCSPIGCNAG | inactive
LALAVGQRDRVLFVKVPVLR | inactive
LAMAPITKSSKLMLAFMR | inactive
LANSKLDCLSVHLFEHNCLA | 1.95 ± 0.069
LAQSQNVVEARINSPWWDSP | inactive
LASKLDCVLPHYNVGRCNDP | 0.297 ± 0.7
LAVLIVDKPYADETHRLLVR | inactive
LCAFHKRNRQEVACVMFVKS | inactive
LCAYNSTWSACNWGFIHNSL | 2.58 ± 0.051
LCECR | inactive
LCESSLKDNGVTSLFVWVLK | inactive
LCFARGLRCTSSVAVESGD | inactive
LCIGVDLKPCYGSVDRYVNL | inactive
LCILMMKVKVCVGNGLFLSA | inactive
LCKFYRYRTLRHSEEKPCHH | inactive

Substance | amyloid nucleation score
LCLRRGGFVRIGVWVFVFYG | inactive
LCLSTIV | inactive
LCNKWY | inactive
LCRGCSLGACGNSGLKYCGW | inactive
LCRLGSSRSVSGVRLGCTLR | inactive
LCSDLVFHNR | inactive
LCSGVHHFVRNTIVKGVCDG | inactive
LCSLCNSLAQWRYNSEWLYT | inactive
LCSYSIESFALLHVFNEAFQ | inactive
LCTNLYWVQFIMEPEEGVIQ | 1.54 ± 0.082
LCTYVFYPIANSSALSLNKV | inactive
LCVFKWLILREYISITHDSI | inactive
LCWKFAPRMLVYMMGY | inactive
LCYALQEGRRWEGYEIRNSM | inactive
LCYNVKSVCGQTMLQLVE | inactive
LDAYDSLLFL | inactive
LDFDVGI | inactive
LDFKIPRN | inactive
LDHYGLSLAHDVRRGVCCFW | 1.13 ± 0.14
LDLNLRVRVLFKFTTGLTFF | inactive
LDNKFSALGCFANARFK | inactive
LDRCNFISTILPQIRFSV | inactive
LDRKFGLRYNGTSYTCDSMV | inactive

Substance | amyloid nucleation score
LDSIPSMSTVLLMSASGCND | inactive
LDTDGSICCCPRAIAHLL | inactive
LDTDWLGYSSLP | inactive
LEFRYPAMWLKFSLYVWTLI | inactive
LEGQMTVRRDFTRFDW | inactive
LEGSYPRADIAVNVFTVFTQ | inactive
LELDCASNRLSPNGIYMYFW | 0.123 ± 0.35
LENSNFWSCSWISRYIYIRN | inactive
LESEASGYKMSKVRVAQCRR | inactive
LETFI | inactive
LEYAVVKSHQREESSSTCLG | inactive
LEYYAS | inactive
LFDCFVILKDFACEFKNIPD | inactive
LFEHLRW | 0.685 ± 0.2
LFEYGYCMIGIQLLKRY | inactive
LFFHHVKLRH | inactive
LFFKP | inactive
LFFRLHYS | inactive
LFFYSYTSFSIC | inactive
LFGTNQYYNY | inactive
LFHHNCWNSNLSKVYMPACN | 0.761 ± 0.1
LFIFNGCAM | 2.31 ± 0.057
LFIRP | inactive

Substance | amyloid nucleation score
LFITLGAV | inactive
LFKMSV | inactive
LFKYGALLCVEVQY | inactive
LFLLFFSAHGQYIRCAIIVR | inactive
LFNDLVAHKGPDYITYATCV | inactive
LFRFGI | -0.005 ± 0.22
LFRLFVSEARTRLNCRTCNF | -0.285 ± 0.64
LFRVDRPTNCGPYFAYHEYT | inactive
LFSELKISSVWCDL | inactive
LFSTCSSWTQFLLRPAVSAV | inactive
LFVRVCSANYFSWEYDSRVN | inactive
LFWPICFHNMTFVLYTSLLN | inactive
LFWSNLWRRDMNISVSNYWL | 1.69 ± 0.11
LFYFVWRVYKFILWSG | inactive
LFYGNW | inactive
LFYIPFCMSFWTSKDRNA | inactive
LGAAFCAPSSSYGKMGP | inactive
LGAKILCNWRVVHDSSCQHL | inactive
LGASRGMFVKNLLIMASHSR | inactive
LGCKESSVPPARVRGPGQAI | inactive
LGFESCVHRGKIKAVVMTST | inactive
LGGCPSNDGSFYVSSSLLHV | inactive
LGGLCPCF | inactive

Substance | amyloid nucleation score
LGIRWLLACWVVENLDFPNI | -0.719 ± 1
LGKHRANHCMAGQDVAYKWV | -0.831 ± 1.1
LGLECVGPFCKGVYFWLDG | inactive
LGLISIAESRRLSRSDSMWW | inactive
LGMGSSDYRGRYRSNS | inactive
LGNRQVRNLATYPDNYLTCT | inactive
LGQFQCQE | inactive
LGYDWRDVNNGK | inactive
LHCTLSNSLSYLHDIQQLLH | inactive
LHESRVAGSNQLSRRDHERW | inactive
LHEVLF | inactive
LHGNYVGQLLDLEIPVRGWI | inactive
LHIVNCCQPKHTRFVFQWYW | 1.89 ± 0.1
LIDKCGKHQTFMGC | inactive
LIDMFIFNARVSNGDFYCPN | 0.718 ± 0.13
LIDMVVFNYKLVIRVRKGSL | inactive
LIELSSSPRSYGHQVLM | inactive
LIGLRCMPLRV | inactive
LIGSYICYAVGLMVTLNNWW | inactive
LIIMNVKSSSSHKRAGVST | inactive
LIINIHDRLLVRVPLWDWLR | inactive
LIISLGTVVIDVQSKKSLLL | 2.29 ± 0.079

Source: the supplement of paper PMC12042874
